According to patent US11130793B2, “GLP-1/GLP-2 dual agonists” (Zealand Pharma A/S, priority 2016, dated 2021):
Square brackets hold non-standard residues; d marks the D form. Aib = CC(C)(N)C(=O)O

B1: Compound 10 (peptide)
peptide: H-H[Aib]EGTFTSELSTILDEQAARDFIAWLIAHKITD-OH
SMILES: CC[C@H](C)[C@H](NC(=O)[C@H](CC(C)C)NC(=O)[C@H](Cc1c[nH]c2ccccc12)NC(=O)[C@H](C)NC(=O)[C@@H](NC(=O)[C@H](Cc1ccccc1)NC(=O)[C@H](CC(=O)O)NC(=O)[C@H](CCCNC(=N)N)NC(=O)[C@H](C)NC(=O)[C@H](C)NC(=O)[C@H](CCC(N)=O)NC(=O)[C@H](CCC(=O)O)NC(=O)[C@H](CC(=O)O)NC(=O)[C@H](CC(C)C)NC(=O)[C@@H](NC(=O)[C@@H](NC(=O)[C@H](CO)NC(=O)[C@H](CC(C)C)NC(=O)[C@H](CCC(=O)O)NC(=O)[C@H](CO)NC(=O)[C@@H](NC(=O)[C@H](Cc1ccccc1)NC(=O)[C@@H](NC(=O)CNC(=O)[C@H](CCC(=O)O)NC(=O)C(C)(C)NC(=O)[C@@H](N)Cc1c[nH]cn1)[C@@H](C)O)[C@@H](C)O)[C@@H](C)O)[C@@H](C)CC)[C@@H](C)CC)C(=O)N[C@@H](C)C(=O)N[C@@H](Cc1c[nH]cn1)C(=O)N[C@@H](CCCCN)C(=O)N[C@H](C(=O)N[C@H](C(=O)N[C@@H](CC(=O)O)C(=O)O)[C@@H](C)O)[C@@H](C)CC
B2: Compound 14 (peptide)
peptide: H-H[Aib]EGTFTSELATILDEQAARDFIAWLYAHKITD-OH
SMILES: CC[C@H](C)[C@H](NC(=O)[C@H](Cc1ccccc1)NC(=O)[C@H](CC(=O)O)NC(=O)[C@H](CCCNC(=N)N)NC(=O)[C@H](C)NC(=O)[C@H](C)NC(=O)[C@H](CCC(N)=O)NC(=O)[C@H](CCC(=O)O)NC(=O)[C@H](CC(=O)O)NC(=O)[C@H](CC(C)C)NC(=O)[C@@H](NC(=O)[C@@H](NC(=O)[C@H](C)NC(=O)[C@H](CC(C)C)NC(=O)[C@H](CCC(=O)O)NC(=O)[C@H](CO)NC(=O)[C@@H](NC(=O)[C@H](Cc1ccccc1)NC(=O)[C@@H](NC(=O)CNC(=O)[C@H](CCC(=O)O)NC(=O)C(C)(C)NC(=O)[C@@H](N)Cc1c[nH]cn1)[C@@H](C)O)[C@@H](C)O)[C@@H](C)O)[C@@H](C)CC)C(=O)N[C@@H](C)C(=O)N[C@@H](Cc1c[nH]c2ccccc12)C(=O)N[C@@H](CC(C)C)C(=O)N[C@@H](Cc1ccc(O)cc1)C(=O)N[C@@H](C)C(=O)N[C@@H](Cc1c[nH]cn1)C(=O)N[C@@H](CCCCN)C(=O)N[C@H](C(=O)N[C@H](C(=O)N[C@@H](CC(=O)O)C(=O)O)[C@@H](C)O)[C@@H](C)CC
B3: Compound 12 (peptide)
peptide: H-H[Aib]EGTFTSELATILDEQAARDFIAWLHAHKITD-OH
SMILES: CC[C@H](C)[C@H](NC(=O)[C@H](Cc1ccccc1)NC(=O)[C@H](CC(=O)O)NC(=O)[C@H](CCCNC(=N)N)NC(=O)[C@H](C)NC(=O)[C@H](C)NC(=O)[C@H](CCC(N)=O)NC(=O)[C@H](CCC(=O)O)NC(=O)[C@H](CC(=O)O)NC(=O)[C@H](CC(C)C)NC(=O)[C@@H](NC(=O)[C@@H](NC(=O)[C@H](C)NC(=O)[C@H](CC(C)C)NC(=O)[C@H](CCC(=O)O)NC(=O)[C@H](CO)NC(=O)[C@@H](NC(=O)[C@H](Cc1ccccc1)NC(=O)[C@@H](NC(=O)CNC(=O)[C@H](CCC(=O)O)NC(=O)C(C)(C)NC(=O)[C@@H](N)Cc1c[nH]cn1)[C@@H](C)O)[C@@H](C)O)[C@@H](C)O)[C@@H](C)CC)C(=O)N[C@@H](C)C(=O)N[C@@H](Cc1c[nH]c2ccccc12)C(=O)N[C@@H](CC(C)C)C(=O)N[C@@H](Cc1c[nH]cn1)C(=O)N[C@@H](C)C(=O)N[C@@H](Cc1c[nH]cn1)C(=O)N[C@@H](CCCCN)C(=O)N[C@H](C(=O)N[C@H](C(=O)N[C@@H](CC(=O)O)C(=O)O)[C@@H](C)O)[C@@H](C)CC
B4: Compound 13 (peptide)
peptide: H-H[Aib]EGTFTSELATILDEQAARDFIAWLQAHKITD-OH
SMILES: CC[C@H](C)[C@H](NC(=O)[C@H](Cc1ccccc1)NC(=O)[C@H](CC(=O)O)NC(=O)[C@H](CCCNC(=N)N)NC(=O)[C@H](C)NC(=O)[C@H](C)NC(=O)[C@H](CCC(N)=O)NC(=O)[C@H](CCC(=O)O)NC(=O)[C@H](CC(=O)O)NC(=O)[C@H](CC(C)C)NC(=O)[C@@H](NC(=O)[C@@H](NC(=O)[C@H](C)NC(=O)[C@H](CC(C)C)NC(=O)[C@H](CCC(=O)O)NC(=O)[C@H](CO)NC(=O)[C@@H](NC(=O)[C@H](Cc1ccccc1)NC(=O)[C@@H](NC(=O)CNC(=O)[C@H](CCC(=O)O)NC(=O)C(C)(C)NC(=O)[C@@H](N)Cc1c[nH]cn1)[C@@H](C)O)[C@@H](C)O)[C@@H](C)O)[C@@H](C)CC)C(=O)N[C@@H](C)C(=O)N[C@@H](Cc1c[nH]c2ccccc12)C(=O)N[C@@H](CC(C)C)C(=O)N[C@@H](CCC(N)=O)C(=O)N[C@@H](C)C(=O)N[C@@H](Cc1c[nH]cn1)C(=O)N[C@@H](CCCCN)C(=O)N[C@H](C(=O)N[C@H](C(=O)N[C@@H](CC(=O)O)C(=O)O)[C@@H](C)O)[C@@H](C)CC
B5: Compound 15 (peptide)
peptide: H-H[Aib]EGTFTSELATILDEQAARDFIAWLIQHKITD-OH
SMILES: CC[C@H](C)[C@H](NC(=O)[C@H](Cc1ccccc1)NC(=O)[C@H](CC(=O)O)NC(=O)[C@H](CCCNC(=N)N)NC(=O)[C@H](C)NC(=O)[C@H](C)NC(=O)[C@H](CCC(N)=O)NC(=O)[C@H](CCC(=O)O)NC(=O)[C@H](CC(=O)O)NC(=O)[C@H](CC(C)C)NC(=O)[C@@H](NC(=O)[C@@H](NC(=O)[C@H](C)NC(=O)[C@H](CC(C)C)NC(=O)[C@H](CCC(=O)O)NC(=O)[C@H](CO)NC(=O)[C@@H](NC(=O)[C@H](Cc1ccccc1)NC(=O)[C@@H](NC(=O)CNC(=O)[C@H](CCC(=O)O)NC(=O)C(C)(C)NC(=O)[C@@H](N)Cc1c[nH]cn1)[C@@H](C)O)[C@@H](C)O)[C@@H](C)O)[C@@H](C)CC)C(=O)N[C@@H](C)C(=O)N[C@@H](Cc1c[nH]c2ccccc12)C(=O)N[C@@H](CC(C)C)C(=O)N[C@H](C(=O)N[C@@H](CCC(N)=O)C(=O)N[C@@H](Cc1c[nH]cn1)C(=O)N[C@@H](CCCCN)C(=O)N[C@H](C(=O)N[C@H](C(=O)N[C@@H](CC(=O)O)C(=O)O)[C@@H](C)O)[C@@H](C)CC)[C@@H](C)CC
B6: Compound 11 (peptide)
peptide: H-H[Aib]EGTFTSELATILDGKAARDFIAWLIAHKITD-OH
SMILES: CC[C@H](C)[C@H](NC(=O)[C@H](CC(C)C)NC(=O)[C@H](Cc1c[nH]c2ccccc12)NC(=O)[C@H](C)NC(=O)[C@@H](NC(=O)[C@H](Cc1ccccc1)NC(=O)[C@H](CC(=O)O)NC(=O)[C@H](CCCNC(=N)N)NC(=O)[C@H](C)NC(=O)[C@H](C)NC(=O)[C@H](CCCCN)NC(=O)CNC(=O)[C@H](CC(=O)O)NC(=O)[C@H](CC(C)C)NC(=O)[C@@H](NC(=O)[C@@H](NC(=O)[C@H](C)NC(=O)[C@H](CC(C)C)NC(=O)[C@H](CCC(=O)O)NC(=O)[C@H](CO)NC(=O)[C@@H](NC(=O)[C@H](Cc1ccccc1)NC(=O)[C@@H](NC(=O)CNC(=O)[C@H](CCC(=O)O)NC(=O)C(C)(C)NC(=O)[C@@H](N)Cc1c[nH]cn1)[C@@H](C)O)[C@@H](C)O)[C@@H](C)O)[C@@H](C)CC)[C@@H](C)CC)C(=O)N[C@@H](C)C(=O)N[C@@H](Cc1c[nH]cn1)C(=O)N[C@@H](CCCCN)C(=O)N[C@H](C(=O)N[C@H](C(=O)N[C@@H](CC(=O)O)C(=O)O)[C@@H](C)O)[C@@H](C)CC
B7: Compound 16 (peptide)
peptide: H-H[Aib]EGTFTSELATILDEQAARDFIAWLIKHKITD-OH
SMILES: CC[C@H](C)[C@H](NC(=O)[C@H](Cc1ccccc1)NC(=O)[C@H](CC(=O)O)NC(=O)[C@H](CCCNC(=N)N)NC(=O)[C@H](C)NC(=O)[C@H](C)NC(=O)[C@H](CCC(N)=O)NC(=O)[C@H](CCC(=O)O)NC(=O)[C@H](CC(=O)O)NC(=O)[C@H](CC(C)C)NC(=O)[C@@H](NC(=O)[C@@H](NC(=O)[C@H](C)NC(=O)[C@H](CC(C)C)NC(=O)[C@H](CCC(=O)O)NC(=O)[C@H](CO)NC(=O)[C@@H](NC(=O)[C@H](Cc1ccccc1)NC(=O)[C@@H](NC(=O)CNC(=O)[C@H](CCC(=O)O)NC(=O)C(C)(C)NC(=O)[C@@H](N)Cc1c[nH]cn1)[C@@H](C)O)[C@@H](C)O)[C@@H](C)O)[C@@H](C)CC)C(=O)N[C@@H](C)C(=O)N[C@@H](Cc1c[nH]c2ccccc12)C(=O)N[C@@H](CC(C)C)C(=O)N[C@H](C(=O)N[C@@H](CCCCN)C(=O)N[C@@H](Cc1c[nH]cn1)C(=O)N[C@@H](CCCCN)C(=O)N[C@H](C(=O)N[C@H](C(=O)N[C@@H](CC(=O)O)C(=O)O)[C@@H](C)O)[C@@H](C)CC)[C@@H](C)CC

molecular target: human glucagon-like peptide 1 receptor (GLP-1R) (human, UniProt P43220); experiment: cell-based or functional assay

| Binder | EC50 GLP-1 (nM); cAMP AlphaScreen |
| --- | --- |
| B1 | 0.005 nM |
| B2 | 0.021 nM |
| B3 | 0.055 nM |
| B4 | 0.016 nM |
| B5 | 0.005 nM |
| B6 | 0.011 nM |
| B7 | 0.006 nM |

molecular target: T1, human GLP-2 receptor (hGLP2-R) (human, UniProt O95838); experiment: cell-based or functional assay
T1 sequence: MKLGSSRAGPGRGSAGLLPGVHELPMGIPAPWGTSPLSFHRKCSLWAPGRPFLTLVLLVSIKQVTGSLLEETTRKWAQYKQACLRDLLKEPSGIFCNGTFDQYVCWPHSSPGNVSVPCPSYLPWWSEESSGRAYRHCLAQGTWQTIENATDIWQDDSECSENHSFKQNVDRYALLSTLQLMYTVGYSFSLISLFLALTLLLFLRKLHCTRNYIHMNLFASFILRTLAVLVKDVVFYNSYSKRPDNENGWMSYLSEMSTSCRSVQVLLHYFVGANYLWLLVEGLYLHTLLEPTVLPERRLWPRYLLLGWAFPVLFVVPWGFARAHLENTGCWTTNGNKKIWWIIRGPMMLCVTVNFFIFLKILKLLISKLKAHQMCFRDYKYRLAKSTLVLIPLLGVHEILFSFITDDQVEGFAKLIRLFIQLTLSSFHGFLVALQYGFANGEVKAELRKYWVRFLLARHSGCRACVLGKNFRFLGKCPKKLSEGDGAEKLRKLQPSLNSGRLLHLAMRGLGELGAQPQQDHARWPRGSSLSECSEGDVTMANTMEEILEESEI

| Binder | EC50 GLP-2 (nM); cAMP AlphaScreen |
| --- | --- |
| B1 | 0.05 nM |
| B2 | 0.049 nM |
| B3 | 0.076 nM |
| B4 | 0.083 nM |
| B5 | 0.038 nM |
| B6 | 0.085 nM |
| B7 | 0.026 nM |
